The values below come from patent US9487562B2, “Stabilized polypeptides as regulators of RAB GTPase function” (President and Fellows of Harvard College, priority 2011, dated 2016).

Bridge positions count the residues as written; N and C are the ends. Square brackets hold non-standard residues; d marks the D form. Ends that are not written are not given here. S5 = C=CCCC[C@](C)(N)C(=O)O

Data set [1] can be described thus: Circular dichroism spectra / percent helicity. It is filed as physicochemical. The settings on record: calculated from the absorbance at 222 nm. The procedure: We next investigated the structural stability of the RFPs by obtaining circular dichroism (CD) spectra for each peptide. All measurements were made at 20° C. in water with peptides at 50 μM. […] By comparison, stapled FIP peptides (RFPs) show helical CD spectra indicated by minima at approximately 208 and 222 nm (FIG. 11B).
A circular dichroism spectrometer (Jasco J-710, Japan) was used to determine the α-helical content of all peptides. Peptides were dissolved in water to a final concentration of 50 μM in a quartz cuvette with a path length of 1 cm. Absorbance values were taken at 1 nm intervals between 190 and 260 nm for buffer alone and for peptide solutions. The background (buffer) spectrum was subtracted from experimental spectra, which were subsequently subjected to baseline-normalization and curve-smoothing within the spectrometer software. Percent-helicity was calculated from the absorbance at 222 nm using helical models as previously reported in Chen Y H et al., Biochemistry, 13, 3350-9 (1974).

The test system of the next data set is U2OS osteosarcoma cells. In words: Quantitative epifluorescence microscopy of cell penetration. The settings on record: 5 μM FITC-RFPs for 12 hours, DMEM 10% FBS. It is filed as cell-based. The procedure: U2OS osteosarcoma cells were treated with 5 μM FITC-RFPs for 12 hours in Dulbecco's Modified Eagle Medium (DMEM) (Gibco®) containing 10% fetal bovine serum (FBS). Cells were washed, then stained with Hoescht nuclear dye. Automated fluorescence microscopy was performed at 20× on an IX5000 epifluorescence microscope. Nuclear staining is shown in the top panel and FITC is show in the bottom panel (FIGS. 16 and 17B). Quantification was performed using MetaXpress software (FIG. 18A).

The next data set has as its target T1, RAB25 (Homo sapiens, UniProt P57735).
T1 construct: RAB25 (residues E7-Q180) was expressed with an N-terminal GST- and hexahistidine tag; made in house; host or cells: Escherichia coli BL21(DE3) pLysS
T1 sequence (P57735 7-180): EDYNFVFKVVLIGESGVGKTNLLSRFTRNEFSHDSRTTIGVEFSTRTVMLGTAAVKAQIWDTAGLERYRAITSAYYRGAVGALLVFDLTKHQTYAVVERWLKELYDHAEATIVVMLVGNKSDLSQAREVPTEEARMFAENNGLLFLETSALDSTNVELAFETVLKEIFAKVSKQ
The experiment in a line: Fluorescence polarization binding of FITC-FIP/FITC-RFP peptides to RAB25. The settings on record: FITC peptide 15 nM. The procedure:
(§1) RAB11/25 protein binding assays were performed by incubating FITC-FIP or FITC-RFP (stapled FIP derivatives) peptides (15 nM) with three-fold dilutions of recombinantly-expressed, purified RAB11, RAB25 or a various epitope-tagged version of either in protein-binding buffer (25 mM Tris-HCl, pH 8.0, 150 mM NaCl, 1 mM EDTA, 1 mM DTT, 10 mM MgCl2, 10 mM GTP). Dilutions and incubations were made in 384-well, black flat-bottom plates (Corning) to a total volume of 40 μL and equilibrated for 60 minutes. Polarization was measured on a Spectramax-M5 multi-label plate reader with λex=485 nm and λem=525 nm. Polarization was calculated according to the standard equation: P=(V−H)/(V+H), where P=polarization, V=vertical emission intensity and H=horizontal emission intensity. Kd values were determined by fitting data to a variable-slope sigmoidal binding curve using Prizm 4 graphing software.
(§2) RAB11 and RAB25 proteins were expressed and purified in Escherichia coli strain BL21(DE3) pLysS (Stratagene) as epitope-tagged fusion proteins in various vectors (Novagen). RAB25 (residues E7-Q180) was expressed with an N-terminal GST- and hexahistidine tag with internal thrombin and TEV cleavage sites (GST-H6-RAB25) (SEQ ID NO: 86) in a pET41-1 vector (Novagen) or with an N-terminal hexahistidine tag alone with an internal thrombin cleavage site (H6-RAB25) (SEQ ID NO: 86) in a pET28 vector (Novagen). FIP3 protein (residues 649-756) was expressed with an N-terminal GST-tag with an internal TEV cleavage site (GST-FIP3) in a pGEX6p-1 vector (Novagen). RAB11 (residues 1-175) was expressed with an N-terminal GST-tag with an internal thrombin cleavage site in a pGEX5x-1 vector (Novagen). Transformed bacteria was grown at 37° C. until an OD600=0.8 was reached, at which point the culture was induced with 0.5 mM isopropyl β-D-1-thiogalactopyranoside (IPTG). Induced cells were grown at 30° C. for 6 hours, pelleted and lysed in binding buffer (25 mM Tris-HC;, pH 8.0, 150 mM NaCl, 1 mM EDTA, 1 mM DTT, 10 mM MgCl2, 10 mM GTP) supplemented with a complete protease inhibitor tablet (Roche) by sonication on ice. The lysate was centrifuged at 14,000 rpm to clear insoluble matter prior to loading onto Ni-NTA resin (Qiagen) for hexahistdine-tagged constructs or on GST-bind agarose resin (Biorad) for GST-tagged constructs. The protein-bound bead slurry was washed 4× with ˜20 mL of buffer and retained protein was eluted with either 250 mM imidazole or 20 mM glutathione in buffer for H6-(SEQ ID NO: 86) or GST-proteins, respectively. The eluent was concentrated using a 30 kD exclusion filter and purified by size-exclusion chromatography on a Superdex-75 Column (Amersham Pharmacia Biotech). Fractions containing purified protein were pooled, concentrated and dialyzed into binding buffer or other similar buffer for specific biochemical assays.

The next data set deals with T2, RAB11 (Homo sapiens, UniProt P62491).
T2 construct: RAB11 (residues 1-175) was expressed with an N-terminal GST-tag with an internal thrombin cleavage site; GST (thrombin cleavage site between tag and RAB11) (N); made in house; host or cells: Escherichia coli BL21(DE3) pLysS
T2 sequence (P62491 1-175): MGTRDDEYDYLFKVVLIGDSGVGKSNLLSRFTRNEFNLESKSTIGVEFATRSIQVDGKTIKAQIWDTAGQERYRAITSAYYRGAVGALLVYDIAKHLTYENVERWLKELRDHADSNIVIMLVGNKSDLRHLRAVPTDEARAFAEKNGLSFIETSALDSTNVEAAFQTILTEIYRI
In words: Fluorescence polarization binding of FITC-FIP/FITC-RFP peptides to RAB11. The following applies: FITC peptide 15 nM, fluorescence polarization. The procedure:
Fluorescence polarization (FP) was used to measure FIP peptide binding to RAB11 and RAB25 proteins. […] This indicated specificity in the binding measurement, as this subtle change would be expected to perturb binding.
as §1, §2

Data set [2] can be described thus: Peptide thermal stability by CD at 222 nm. The settings on record: CD at 222 nm over 10-90° C. Format: physicochemical. As to the method: Peptide thermal stability was measured by scanning the peptide CD at 222 nm over a temperature range (10-90° C.). A sigmoidal unfolding curve was apparent for helices of unmodified FIP peptides (FIP4) with a Tm of ˜34° C. (FIG. 12A).
Peptide thermal stability experiments were performed in a similar manner to circular dichroism experiments in Example 5. Peptide solutions were cooled to 10° C. in a temperature controlled CD-chamber and circular dichroism absorbance at 222 nm was measured at 1 degree intervals while the solution was heated to 90° C. 222 nm CD values were plotted as a function of temperature and fitted to a sigmoidal denaturation curve, with the half-maximal temperature representing the Tm.

Another data set deals with T3, GST-H6-RAB25 (Homo sapiens, UniProt P57735).
T3 construct: RAB25 (residues E7-Q180) was expressed with an N-terminal GST- and hexahistidine tag; made in house; host or cells: Escherichia coli BL21(DE3) pLysS
T3 sequence (P57735 7-180): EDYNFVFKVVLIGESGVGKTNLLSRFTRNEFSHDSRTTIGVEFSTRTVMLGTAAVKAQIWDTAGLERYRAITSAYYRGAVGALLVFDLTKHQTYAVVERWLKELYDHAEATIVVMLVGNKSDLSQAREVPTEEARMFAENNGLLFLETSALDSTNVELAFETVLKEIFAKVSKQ
The experiment in a line: ALPHASCREEN competition assay (biotin-RFP14 / GST-H6-RAB25 complex). Format: binding. The settings on record: competitor added to pre-formed biotin-RFP14/GST-H6-RAB25 complex. The text has this:
A nano-bead based […] assay (ALPHASCREEN®) was used to qualitatively assess protein binding (peptide-RAB or protein-RAB association) and quantitatively assess inhibitor ranking (competition assays). […] FIG. 13B schematizes the ALPHASCREEN® (binding) strategy. If an RFP (or FIP protein/peptide) conjugated to biotin (bound to a donor bead, in this case streptavidin) interacts with RAB conjugated to GST (bound to an acceptor bead, in this case, anti-GST), there is a proximity-dependent transfer of chemical energy, resulting in light production.
For competition assays, complexes consisting of biotin-FIP and GST-RAB proteins or biotin-RFP and GST-RAB peptides with free RFPs, unmodified peptides, and FIP proteins were incubated.
In FIGS. 13 and 14, the binding complex is pre-formed with Biotin-RFP14 and GST-H6-RAB25 (SEQ ID NO: 86). Soluble competitors were then added after an incubation time (30 min) across a dose range. These competitors are FIP3 (expressed protein), and Trp-labeled derivatives of RFP14, RFP16 and RFP17. After another incubation of 30 min the streptavidin donor beads and Ni-NTA acceptor beads are added and the luminescent signal is measured approximately 30 min later (total of ˜1.5 hr incubation time).

On to “RFP14: stapled FIP peptide, SEQ ID NO: 75 (RQVRELENYIDRLLV[S5]VNE[S5]TPNILRIPR; staple 16-20; not fully specified (C-terminus))”, for which, in data set [1], the theoretical percent helicity entry was “highest helical content”. Moreover, the cell penetration entry in the data set with U2OS osteosarcoma cells is recorded as “lowest cell penetration”. For the same molecule, the “binding affinity to RAB25” value with RAB25 is reported as “highest binding affinity”. Also, in the data set with RAB11, the “binding affinity to RAB11” value is reported as “highest binding affinity”. For the same molecule, the Tm in data set [2] turned out to be 64 °C.

B1: FIP3 protein: expressed FIP3 protein (652-756), soluble competitor in … (protein, UniProt O75154 652-756, looked up, fragment)
chain: QEYHSRARESELEQEVRRLKQDNRNLKEQNEELNGQIITLSIQGAKSLFSTAFSESLAAEISSVSRDELMEAIQKQEEINFRLQDYIDRIIVAIMETNPSILEVK
modifications: GST tag
On to B1, for which, in the data set with GST-H6-RAB25, the “competition for RAB25 binding (IC50)” value is on record as “significantly higher IC50”.
